Laboratory results published in PMC1839165, “Virus Evolution Reveals an Exclusive Role for LEDGF/p75 in Chromosomal Tethering of HIV” (PLoS Pathogens, 2007).

B1: C-terminal His6-tagged HIV-1 integrase, wild type (enzyme, HIV-1 (NL4-3), UniProt P12497 1148-1435, looked up)
chain: FLDGIDKAQEEHEKYHSNWRAMASDFNLPPVVAKEIVASCDKCQLKGEAMHGQVDCSPGIWQLDCTHLEGKVILVAVHVASGYIEAEVIPAETGQETAYFLLKLAGRWPVKTVHTDNGSNFTSTTVKAACWWAGIKQEFGIPYNPQSQGVIESMNKELKKIIGQVRDQAEHLKTAVQMAVFIHNFKRKGGIGGYSAGERIVDIIATDIQTKELQKQITKIQNFRVYYRDSRDPVWKGPAKLLWKGEGAVVIQDNSDIKVVPRRKAKIIRDYGKQMAGDDCVASRQDED
notes: HIV-1 NL4-3 integrase (IN), the cut product of the Gag-Pol polyprotein; GenBank U26942, base pairs 3608 through 4471; the results call it IN^s (IN from a synthetic gene); also called IN-WT; WT IN^s; not shown: His6, C-terminal, kept
B2: MBP-Δ325 (domain or fragment, human, UniProt O75475-1 325-530, looked up)
chain: EQQNKDEGKKPEVKKVEKKRETSMDSRLQRIHAEIKNSLKIDNLDVNRCIEALDELASLQVTMQQAQKHTEMITTLKKIRRFKVSQVIMEKSTMLYNKFKNMFLVGEGDSVITQVLNKSLAEQRQHEEANKTKDQGKKGPNKKLEKEQTGSKTLNGGSDAQDGNQPQHNGESNEDSKDNHEASTKKKPSSEERETEISLKDSTLDN
notes: GenBank NM_033222; also called Δ325-MBP; Δ325 fragment; source: E. coli BL21 (plasmid pMBP-Δ325), purified
B3: MBP-IBD (domain or fragment, human, UniProt O75475-1 347-429, looked up)
chain: SMDSRLQRIHAEIKNSLKIDNLDVNRCIEALDELASLQVTMQQAQKHTEMITTLKKIRRFKVSQVIMEKSTMLYNKFKNMFLV
notes: the introduction gives amino acids 347 to 429 for the IBD; GenBank NM_033222; The limits are those printed for the minimal IBD in the introduction; also called IBD-MBP; source: E. coli BL21 (plasmid pMBP-IBD), purified

Assays:
[1] = target: C-terminal His6-tagged HIV-1 integrase A128T (HIV-1 (NL4-3)); assay: AlphaScreen or HTRF; 300 nM C-terminal His6-tagged IN with increasing MBP-Δ325 (30 to 300 nM); Ni-chelate acceptor beads, anti-MBP donor beads; 25 mM Tris/HCl pH 7.3, 150 mM NaCl, 1 mM MgCl2, 0.01% Tween-20, 0.1% BSA; room temperature
[2] = target: C-terminal His6-tagged HIV-1 integrase E170G (HIV-1 (NL4-3)); assay: as above
[3] = target: C-terminal His6-tagged HIV-1 integrase A128T/E170G (HIV-1 (NL4-3)); assay: as above
Nontagged LEDGF/p75 = target: T1, Nontagged LEDGF/p75 (human, UniProt O75475-1 1-530); assay: pull-down; 6 μg C-terminal His6-tagged IN on Ni-NTA-agarose; 6 μg LEDGF/p75, MBP-IBD or MBP-Δ325 added; 25 mM Tris-HCl pH 7.4, 0.1% Nonidet P-40, 20 mM imidazole, 150 mM NaCl, 1 mM MgCl2, BSA; 4 h at 4 °C; SDS-PAGE, Coomassie Blue; conditions: both partners purified
T1 construct: LEDGF/p75, human, 530 amino acids, GenBank NM_033222; also called recombinant LEDGF/p75; full-length LEDGF/p75; source: E. coli BL21(DE3) (plasmid pCPnat75), purified

[4] = target: B1; assay: AlphaScreen or HTRF; 30 nM C-terminal His6-tagged IN with increasing MBP-Δ325 (30 to 300 nM); Ni-chelate acceptor beads, anti-MBP donor beads; 25 mM Tris/HCl pH 7.3, 150 mM NaCl, 1 mM MgCl2, 0.01% Tween-20, 0.1% BSA; room temperature; conditions: both partners purified
[5] = target: B1; assay: pull-down; 6 μg C-terminal His6-tagged IN on Ni-NTA-agarose; 6 μg LEDGF/p75, MBP-IBD or MBP-Δ325 added; 25 mM Tris-HCl pH 7.4, 0.1% Nonidet P-40, 20 mM imidazole, 150 mM NaCl, 1 mM MgCl2, BSA; 4 h at 4 °C; SDS-PAGE, Coomassie Blue; conditions: both partners purified

Question: Which results are given for “MBP-Δ325 (from UniProt O75475-1 325-530) (domain or fragment)”?
Answer: fold reduction of the AlphaScreen signal compared with IN-WT (300 nM IN) [1]: 2 fold; fold reduction of the AlphaScreen signal compared with IN-WT (300 nM IN) [2]: 3 fold; fold reduction of the AlphaScreen signal compared with IN-WT (300 nM IN, 300 nM MBP-Δ325) [3]: 8 fold

Question: Does B1 bind (Nontagged LEDGF/p75)?
Answer: binds

Question: Does B2 bind [4]?
Answer: binds

Question: Does B3 bind [5]?
Answer: binds
